Measured values taken from publication PMC7368059.

Target: full length La Crosse virus L protein (RNA-dependent RNA polymerase) (La Crosse virus (strain LACV/mosquito/1978)) (UniProt A5HC98)
Assay: crystal structure; LACV-L FL with 3' (1-16) and 5' (9-16) vRNA at 5 mg/ml, 5' (1-10) vRNA soaked in; 100 mM Tris pH 8.0, 100 mM NaCl, 8% PEG 4000; space group C2, 4.0 Å; two L protein complexes per asymmetric unit

With “full length La Crosse virus L protein (RNA-dependent RNA polymerase) (from UniProt A5HC98 1-2263) (enzyme)” the stoichiometry N was 2.
